Key:
Concanavalin A [1] = biological target: Concanavalin A (UniProt P02866); assay: Con A Sepharose affinity chromatography, 100 mg rHA loaded; albumin monomer in eluate by GP-HPLC as percent of load; sample PBA flow through & washings
Concanavalin A [2] = biological target: Concanavalin A (UniProt P02866); assay: Con A Sepharose affinity chromatography, 100 mg rHA loaded; albumin monomer in eluate by GP-HPLC as percent of load; sample SP-FF2 flow through & washings
Concanavalin A [3] = biological target: Concanavalin A (UniProt P02866); assay: Con A Sepharose affinity chromatography, 100 mg rHA loaded; albumin monomer in eluate by GP-HPLC as percent of load; sample final product
Concanavalin A [4] = biological target: Concanavalin A (UniProt P02866); assay: Con A Sepharose affinity chromatography (Con A assay); bound albumin as percent of load

| Substance | ConA-binding rHA (% of load) (Concanavalin A [1]) | ConA-binding rHA (% of load) (Concanavalin A [2]) | ConA-binding rHA (% of load) (Concanavalin A [3]) | content of Con A binding material (Concanavalin A [4]) |
| --- | --- | --- | --- | --- |
| recombinant human albumin (rHA) from a non-mutant (non-pmt1) Saccharomyces cerevisiae strain, purified by the process of Example 1 (from UniProt P02768 25-609) | 0.55 % of load | 0.32 % of load | 0.28 % of load |  |
| rHA used to spike the Pichia culture medium (from UniProt P02768 25-609) |  |  |  | 0.57 % (w/w) |
| rHA purified from the Pichia pastoris culture medium in accordance with the process of Example 1 (from UniProt P02768 25-609) |  |  |  | 0.22 % (w/w) |

Source: patent US9555344
